Assay results from patent publication US20230338431.

Biological target: cAMP response element-binding protein 1 (CREB1) (UniProt P16220)
Sequence (P16220 whole entry): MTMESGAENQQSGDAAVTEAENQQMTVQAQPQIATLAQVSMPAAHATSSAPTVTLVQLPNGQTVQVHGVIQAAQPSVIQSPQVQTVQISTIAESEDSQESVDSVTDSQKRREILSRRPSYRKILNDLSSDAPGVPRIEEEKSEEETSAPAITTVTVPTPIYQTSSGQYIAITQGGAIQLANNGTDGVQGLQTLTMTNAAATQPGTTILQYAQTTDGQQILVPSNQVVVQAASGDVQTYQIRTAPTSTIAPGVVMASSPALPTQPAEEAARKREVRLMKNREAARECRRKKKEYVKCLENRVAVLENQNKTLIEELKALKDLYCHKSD

Substance: protein kinase B (AKT) subunit AKT1
- p-CREB1 expression after siRNA against AKT1, AKT2 and AKT3, immunoblotting assay: only AKT1 phosphorylated and activated its downstream effector cAMP response element-binding protein 1 (CREB1)
